According to patent US20110039770A1, “INHIBITORS OF PROTEIN KINASE C ISOFORMS AND USES THEREOF” (PHARMAGAP INC., priority 2005, published 2011):
Where a SMILES comes first, the peptide text is derived from it. [ ]: non-standard residue; d: D form.

What was measured:
PKC-α [1] = target: T1, PKC-α (Homo sapiens, UniProt P17252); test: ELISA-based competitive binding assay with purified PKC isoform; design: key to Affinity for PKC isoform α: —: no detectable affinity; Low to very low affinity at 10X or 20X or both PRE concentrations in at least one cell line in the cell extract assay; Low affinity in purified isoform assay.; Moderate affinity at 10X or 20X or both PRE concentrations in at least one cell line in the cell extract assay.; High affinity at 10X or 20X or both PRE concentrations in at least one cell line in the cell extract assay; High affinity in purified isoform assay; settings: for Affinity for PKC isoform α: Purified isoform
Description: Peptides PRE 1, 2, 3, 4, 5, 6, 7, 8, 9, 10, 11, 12 and 13 (see Table 3) were tested for their ability to interfere with binding of PKC isoform-specific antibodies to their target PKC isoforms using a competitive binding assay and purified PKC isoforms.
Procedure: Competitive binding was assessed using a 96 well plate ELISA-based assay as described below.
Greiner 96 well ELISA plates were coated with the appropriate PKC isoform diluted in PBSN (PBS with Calcium/Magnesium+0.05% Sodium azide w/w). 50 μL/well at 250 ng/mL was used. Control wells contained PBSN only. Plates were incubated overnight at 4° C.
The plates were washed 3 times with 200 μL of dH2O per well, then 100 μL of blocking solution was added per well and the plate incubated for 1 h at 37° C. The washing steps with dH2O were repeated and 50 μL of the appropriate PRE solution (PRE stock solution [20 mM in DMSO] diluted in PBSN) was added and the plate incubated for 1 h at room temperature.
After incubation, 5 μL of 1.1:400 anti-PKC (isoform specific antibody) was added per well (to provide a final concentration of 1:4000). For PKC-epsilon, 1.1:800 dilution was used and for PKC-zeta a 1.1:100 dilution was used due to high and low binding affinity, respectively. The plates were then incubated 1 h at room temperature, followed by washing with dH2O as described above.
50 μL of 1:1000 dilution of Alkaline Phosphatase (AP) conjugated antibody (anti-rabbit for all except zeta, which was anti-goat) was then added and the plate incubated for 1 h at room temperature. Washing with dH2O was then repeated. Finally, 100 μL of pNPP solution in pNPP buffer (2 mM MgCl2, 100 mM Sodium bicarbonate in water, pH 9.8) was added to all wells and incubated for 8 minutes for α, βI, βII ε, and ζ, or for 15-20 mins for δ (until sufficient coloration is observed). The reaction was stopped by addition of Stop solution (2N NaOH) and the absorbance at 405 nm was read on a Galaxy Plate reader.
Controls were PKC without PRE; blank controls, and controls containing the final concentrations of DMSO used for solubilizing the PREs. The non-specific binding capacity related to DMSO was also measured.
The antibodies used were as follows: anti-PKC α (Cat. No. SC-208); anti-PKC βI (Cat. No. SC-209); anti-PKC βII (Cat. No. SC-210); anti-PKC δ (Cat. No. SC-213); anti-PKC ε (Cat. No. SC-214); anti-PKC ζ (Cat. No. SC-216-G) (all from Santa Cruz Biotechnology, Inc.). The AP-conjugated antibodies were obtained from Jackson Immuno Research Laboratories (West Grove, Pa.).
Calculations: The OD values measured at 405 nm represent the free PKC coated per well.
OD405 PKC alone−Blank OD405 of each sample=OD405 coated isoform
(OD405 of sample X/OD405 coated isoform)×100=% n that represents the percentage of X binding compared to control.
100-% n measures the relative binding capacity of X towards the tested isoform.
The apparent binding capacity of the DMSO samples was then subtracted from X binding capacity.
All measurements were made in triplicate and the values in the table represent the averaged calculated binding capacity values after subtraction of the DMSO apparent binding capacity (averaged from 12 values, respectively 10.80, 11.20 and 16.40 corresponding to the concentrations of DMSO used to dilute the […] at 200, 100 and 50 μM respectively). The results allow for quantitative comparison of the binding capacity of each PRE towards an individual isoform within each table, but not among isoforms due to differences in sensitivity of the specific antibodies toward the secondary antibody. This applies particularly to PKC-delta. As noted above, the colour development duration was increased 2-3 times and, as a result, the OD405 measurements may be overestimated for this isoform.

PKC-α [2] = target: T1, PKC-α; test: Competitive binding assay using cell extracts (Western blot); design: endogenous PKC-α in (A) untreated human neuroblastoma (IMR-32) cells; endogenous in cells; host or cells: IMR-32 human neuroblastoma cells; key: —: no detectable affinity; Low to very low affinity at 10X or 20X or both PRE concentrations in at least one cell line in the cell extract assay; Low affinity in purified isoform assay.; Moderate affinity at 10X or 20X or both PRE concentrations in at least one cell line in the cell extract assay.; High affinity at 10X or 20X or both PRE concentrations in at least one cell line in the cell extract assay; High affinity in purified isoform assay; settings: Cell extract; PRE 10X or 20X antibody concentration

Row | Affinity for PKC isoform α (PKC-α [1]) | Affinity for PKC isoform α (PKC-α [2]) | inhibition at 50 µM (PKC-α [1]; PRE 50 μM, purified PKC-α, read-out: calculated binding capacity (100-% n, DMSO apparent binding subtracted)) | inhibition at 100 µM (PKC-α [1]; PRE 100 μM, purified PKC-α, read-out: calculated binding capacity (100-% n, DMSO apparent binding subtracted)) | inhibition at 200 µM (PKC-α [1]; PRE 200 μM, purified PKC-α, read-out: calculated binding capacity (100-% n, DMSO apparent binding subtracted)) | calculated binding capacity (100-% n, DMSO apparent binding subtracted) (PKC-α [1]; PRE 100 μM, purified PKC-α) | Compound
1 | L | L |  |  |  |  | Ac-ISIGILQNADK-NH2 (not fully specified; printed as Ac-ISIGILQNADK-NH2) [PRE 7]
2 | — | M/H |  |  |  |  | Ac-RDAQNLI-NH2 [PRE 13]
3 | — | H/L |  |  |  |  | Ac-ISIGILNQADK-NH2 [PRE 10]
4 | — | M/L |  |  |  | 5.35% | Ac-isigilqnadk-NH2 (Ac-[dI][dS][dI]G[dI][dL][dQ][dN][dA][dD][dK]-NH2; SMILES CC[C@@H](C)[C@@H](NC(C)=O)C(=O)N[C@H](CO)C(=O)N[C@@H](C(=O)NCC(=O)N[C@@H](C(=O)N[C@H](CC(C)C)C(=O)N[C@H](CCC(N)=O)C(=O)N[C@H](CC(N)=O)C(=O)N[C@H](C)C(=O)N[C@H](CC(=O)O)C(=O)N[C@H](CCCCN)C(N)=O)[C@H](C)CC)[C@H](C)CC) [PRE 9]
5 | — | M/L |  |  |  |  | ILEDKGGDAQNLIGISI [PRE 8]
6 | L | H/L |  |  |  |  | Ac-RDAQNLIGISI-NH2 [PRE 11]
7 | — | — |  |  |  |  | Ac-KDAQNLI-NH2 [PRE 12]

The next lines start with the compound.

Row | Compound | Affinity for PKC isoform α (PKC-α [1]) | Affinity for PKC isoform α (PKC-α [2]) | inhibition at 50 µM (PKC-α [1]; PRE 50 μM, purified PKC-α, read-out: calculated binding capacity (100-% n, DMSO apparent binding subtracted)) | inhibition at 100 µM (PKC-α [1]; PRE 100 μM, purified PKC-α, read-out: calculated binding capacity (100-% n, DMSO apparent binding subtracted)) | inhibition at 200 µM (PKC-α [1]; PRE 200 μM, purified PKC-α, read-out: calculated binding capacity (100-% n, DMSO apparent binding subtracted)) | calculated binding capacity (100-% n, DMSO apparent binding subtracted) (PKC-α [1]; PRE 100 μM, purified PKC-α)
8 | RRKKGGKDFVVKR [PRE 1] | — | H |  |  |  | 
9 | CC[C@H](C)[C@H](NC(=O)[C@H](CO)NC(=O)[C@@H](NC(=O)CNC(=O)[C@@H](NC(=O)[C@H](CC(C)C)NC(=O)[C@H](CC(N)=O)NC(=O)[C@H](CCC(N)=O)NC(=O)[C@H](C)NC(=O)[C@H](CC(=O)O)NC(=O)[C@H](CCCCN)NC(C)=O)[C@@H](C)CC)[C@@H](C)CC)C(N)=O [PRE 4, Ac-KDAQNLIGISI-NH2] (Ac-KDAQNLIGISI-NH2) | H | H |  |  |  | 
10 | CC[C@H](C)[C@H](NC(=O)[C@H](CO)NC(=O)[C@@H](NC(=O)CNC(=O)[C@@H](NC(=O)[C@H](CC(C)C)NC(=O)[C@H](CC(N)=O)NC(=O)[C@H](CCC(N)=O)NC(=O)[C@H](C)NC(=O)[C@H](CC(=O)O)NC(=O)CNC(=O)CNC(=O)[C@H](CCCCN)NC(=O)[C@@H](NC(=O)[C@H](CCC(=O)O)NC(=O)[C@H](CCC(N)=O)NC(=O)[C@@H](NC(=O)CNC(=O)[C@H](CCCCN)NC(=O)[C@H](C)NC(C)=O)[C@@H](C)CC)C(C)C)[C@@H](C)CC)[C@@H](C)CC)C(N)=O [PRE 3] (Ac-AKGIQEVKGGDAQNLIGISI-NH2) | H | H |  |  |  | 
11 | CC[C@H](C)[C@H](NC(=O)[C@H](CO)NC(=O)[C@@H](NC(=O)CNC(=O)[C@@H](NC(=O)[C@H](CC(C)C)NC(=O)[C@H](CC(N)=O)NC(=O)[C@H](CCC(N)=O)NC(=O)[C@H](C)NC(=O)[C@H](CC(=O)O)NC(=O)[C@H](CCCCN)NC(=O)CNC(=O)CNC(=O)[C@H](CCCCN)NC(=O)[C@@H](NC(=O)[C@H](CCC(=O)O)NC(=O)[C@H](CCC(N)=O)NC(=O)[C@@H](NC(=O)CNC(=O)[C@H](CCCCN)NC(=O)[C@H](C)NC(C)=O)[C@@H](C)CC)C(C)C)[C@@H](C)CC)[C@@H](C)CC)C(N)=O [PRE 5] (Ac-AKGIQEVKGGKDAQNLIGISI-NH2) | — | M | 0% | 0% | 0% | 
12 | Ac-KDANQLIGISI-NH2 [PRE 6] | — | H/L |  |  |  | 
